Measured values: patent publication US20200199236A1

Key:
[1] = molecular target: FcγRIIIa 158F (UniProt P08637); experiment: biosensor with SA sensor, biotin-FcγRIIIa 158F loaded, antibody in solution
[2] = molecular target: FcγRIIIa 158V (UniProt P08637); experiment: biosensor with SA sensor, biotin-FcγRIIIa 158V loaded, antibody in solution (7 concentrations, 2x gradient from 500 nM)
FcγRIIIa 158V, sequence (P08637 17-208 F176V): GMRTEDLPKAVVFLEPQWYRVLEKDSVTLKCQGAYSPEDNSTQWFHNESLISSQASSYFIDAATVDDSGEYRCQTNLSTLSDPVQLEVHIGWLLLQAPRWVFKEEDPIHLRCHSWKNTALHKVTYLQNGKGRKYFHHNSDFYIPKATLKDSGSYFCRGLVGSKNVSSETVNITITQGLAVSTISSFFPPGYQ

FcγRIIIa 158F, sequence (P08637 17-208 limits assumed): as the sequence (P08637 17-208 F176V) above, with V160F counted along it

Kd [1]: 226 nM | Kd [2]: 36.8 nM
Substance: Obinutuzumab (antibody)
